Assay [1] addresses T1, cynomolgus monkey IgE (in cynomolgus serum, Harlan Sera-Lab Ltd) (cynomolgus monkey).
T1 construct: Serum was the source of IgE; eight serum samples; also called cynomolgus IgE; Cyno 1 to Cyno 8 serum samples
Put plainly: capture ELISA, Test 2, Cyno 3. The method, then:
(§1) Wells were washed once with 150 μL/well wash buffer (0.05% Tween-20, Sigma, Cat. No. P7949/TBS) then blocked with 150 μL/well 1% BSA (Sigma, Cat. No. A7030) in TBS for 2 hours at room temperature. Wells were washed twice with 150 μL wash buffer. 50 μL human (in-house donors) or cynomolgus serum (Harlan Sera-Lab Ltd, Loughborough) was added from neat to at least 1:16 dilution in 1% BSA/0.05% Tween-20/TBS diluent buffer. […] Wells were incubated for 2 hours at 25° C. before washing (3×150 μL wash buffer). […] Wells were incubated for 1 hour at 25° C. then washed (3×150 μL wash buffer). Streptavidin-HRP (Amersham Bioscience, Cat. No. RPN 1231) diluted 1:1000 in diluent buffer was added to all wells and incubated for 45 minutes at room temperature. Wells were washed (3×150 […] wash buffer). 50 μL OPD (Dako, Cat. No. S2045) was added to all wells and the color allowed to develop for 10 minutes before stopping the reaction with 50 μl 0.6M H₂SO₄ and the absorbance measured at 490 nm.

In assay [2] the target is T2, free IgE in human serum (healthy volunteers, in-house donors) (human, UniProt P01854-1 1-428).
T2 construct: Kept apart from the bought myeloma IgE because it is native serum IgE of single donors; also called serum IgE
T2 sequence (P01854 other isoform, or with tags, fused parts or gaps): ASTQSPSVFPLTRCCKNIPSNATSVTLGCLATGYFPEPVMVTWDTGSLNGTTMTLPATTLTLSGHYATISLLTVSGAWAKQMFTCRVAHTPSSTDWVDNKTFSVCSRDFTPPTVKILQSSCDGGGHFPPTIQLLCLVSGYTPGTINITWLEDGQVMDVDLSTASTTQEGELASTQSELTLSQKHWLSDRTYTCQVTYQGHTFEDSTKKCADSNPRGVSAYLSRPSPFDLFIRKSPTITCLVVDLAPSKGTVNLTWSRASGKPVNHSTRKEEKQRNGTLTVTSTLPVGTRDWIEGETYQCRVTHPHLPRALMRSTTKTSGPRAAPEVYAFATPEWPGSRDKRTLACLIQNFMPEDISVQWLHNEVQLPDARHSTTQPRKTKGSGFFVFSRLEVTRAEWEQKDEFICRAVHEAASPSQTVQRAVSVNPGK
Put plainly: serum free IgE depletion ELISA; DIN 0623 experiment 2. The procedure: (§2) The next day ELISA plates were washed 1× with 300 μL/well wash buffer (0.05% Tween-20, Sigma, Cat. No. P7949/TBS) then blocked with 150 μL/well 1% BSA (Sigma, Cat. No. A7030) in TBS for 1 hour at room temperature.

In assay [3] the target is T2, free IgE in human serum (healthy …). In words: capture ELISA, Test 2, human serum. The procedure: as §1
The target is the same in assay [4]. Put plainly: serum free IgE depletion ELISA; DIN 0321 experiment 2. The method, then: as §2
The target in assay [5] is T1, cynomolgus monkey IgE (in cynomolgus …). Put plainly: capture ELISA, Test 2, Cyno 6. The method, then:
as §1

The target of assay [6] is T2, free IgE in human serum (healthy …). Put plainly: serum free IgE depletion ELISA; DIN 0451 experiment 2. The procedure:
as §2

Assay [7] concerns the target T1, cynomolgus monkey IgE (in cynomolgus …). In words: capture ELISA, Test 2, Cyno 7. The procedure: as §1
Assay [8] concerns the target T3, human IgA (Sigma, Cat. No. I2636) (human).
T3 chain: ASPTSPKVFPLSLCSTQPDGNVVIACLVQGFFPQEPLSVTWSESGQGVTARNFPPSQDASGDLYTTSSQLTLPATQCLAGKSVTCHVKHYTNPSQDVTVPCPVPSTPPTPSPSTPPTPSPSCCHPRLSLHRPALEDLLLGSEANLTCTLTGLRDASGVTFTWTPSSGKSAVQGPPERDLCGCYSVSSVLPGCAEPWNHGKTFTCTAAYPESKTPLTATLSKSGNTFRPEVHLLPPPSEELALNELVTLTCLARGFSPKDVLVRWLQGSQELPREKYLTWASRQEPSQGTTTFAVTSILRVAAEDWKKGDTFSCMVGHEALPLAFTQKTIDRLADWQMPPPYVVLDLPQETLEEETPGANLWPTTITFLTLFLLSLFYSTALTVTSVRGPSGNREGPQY
Put plainly: ELISA on coated immunoglobulin. The method, then: (§3) Wells were washed 3× with 150 μL wash buffer (0.05% Tween-20 (Sigma, Cat. No. P7949)/PBS) then blocked with 150 μL/well blocking buffer (2.5% BSA (Sigma, Cat. No. A7030)/PBS) for 2 hours at room temperature. Wells were washed 3× with 150 μL wash buffer/well. […] Antibodies were diluted in diluent buffer (PBS/1% BSA/0.05% Tween-20) and this was added to blank control wells (duplicate wells for each secondary antibody used). Antibodies were incubated for 2 hours at room temperature. Wells were washed 3× with 150 μL wash buffer/well. Binding of control antibodies to immunoglobulin was detected with anti-mouse IgG-HRP conjugate (Sigma, Cat. No. A4416) diluted 1:8000 in diluent buffer. 50 μL/well was added to control antibody and blank wells. Wells were incubated for 1 hour at room temperature, then washed 3× with 150 μL wash buffer/well. 50 μl OPD (Dako, Cat. No. […] Wells were incubated for 1 hour at room temperature then washed 3× with 150 μL wash buffer/well. Streptavidin-HRP (Amersham Bioscience, Cat. No. RPN 1231) diluted 1:2000 in diluent buffer was added to all wells and incubated for 45 minutes at room temperature. Wells were washed (3×150 μL wash buffer).

Assay [9] addresses T4, human IgG3 (Biodesign, Cat. No. A50186H) (human).
T4 construct: Bought immunoglobulin coated on the plate
Put plainly: ELISA on coated immunoglobulin. The method, then: as §3

For assay [10], the target named is T2, free IgE in human serum (healthy …). Put plainly: serum free IgE depletion ELISA; DIN 0591. The method, then: as §2
For assay [11], the target named is T1, cynomolgus monkey IgE (in cynomolgus …). Put plainly: capture ELISA, Test 2, Cyno 1. The procedure:
as §1

For assay [12] the target is unchanged. In words: capture ELISA, Test 2, Cyno 5. The procedure:
as §1

For assay [13], the target named is human IgE (Human myeloma, azide free, Serotec, Cat. No. PHP008X2) (human, UniProt P01854 1-546). Put plainly: cell-based or functional assay.
Sequence of human IgE (Human myeloma, azide free, Serotec, Cat. No. PHP008X2) (P01854 whole entry): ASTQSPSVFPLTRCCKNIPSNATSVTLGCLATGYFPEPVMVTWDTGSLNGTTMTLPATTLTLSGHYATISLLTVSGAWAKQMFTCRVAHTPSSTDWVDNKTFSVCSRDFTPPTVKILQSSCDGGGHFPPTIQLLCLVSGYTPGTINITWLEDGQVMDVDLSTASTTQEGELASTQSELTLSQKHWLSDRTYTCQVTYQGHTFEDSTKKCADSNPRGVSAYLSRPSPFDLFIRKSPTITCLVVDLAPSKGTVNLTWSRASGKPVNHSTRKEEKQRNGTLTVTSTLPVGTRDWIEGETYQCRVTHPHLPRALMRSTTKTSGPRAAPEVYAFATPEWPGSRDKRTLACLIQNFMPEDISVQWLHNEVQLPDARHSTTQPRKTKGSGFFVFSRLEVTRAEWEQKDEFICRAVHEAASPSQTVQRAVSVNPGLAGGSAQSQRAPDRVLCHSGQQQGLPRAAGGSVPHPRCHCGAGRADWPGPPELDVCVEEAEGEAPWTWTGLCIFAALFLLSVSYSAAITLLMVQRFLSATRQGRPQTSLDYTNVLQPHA
Assay [14] concerns the target T1, cynomolgus monkey IgE (in cynomolgus …). Put plainly: capture ELISA, Test 2, Cyno 8. The procedure:
as §1

Assay [15] has the same target. Put plainly: capture ELISA, Test 2, Cyno 2. The method, then: as §1
Assay [16] deals with T2, free IgE in human serum (healthy …). Put plainly: serum free IgE depletion ELISA; DIN 0155. The procedure: as §2

Residue numbers refer to the chain shown, from its start. Names and notes keep the numbering of the source.

B1: 5.948.1 (recombinant) (antibody, human IgG2, kappa, V domains shown)
VH: QVQLVQSGAEVKKPGASVKVSCKASGYTFTSYDINWVRQATGQGLEWMGWMDPNSGNTGYAQKFQGRVTMTRNTSISTAYMELSSLRSEDTAVYYCARGHYDSDGYYSFSGMDVWGQGTTVTVSS
VL: not shown
notes: Human IgG2 kappa; leader omitted; Two batches were tested in some assays; also called recombinant 5.948.1; 5.948.1 - Batch 1 (762.8 µg/mL)
Consider B1, for which the IgE concentration detected in assay [1] is 309 ng/mL; in [3] it was 431 ng/mL; in assay [5], 62 ng/mL; in [7], 0 ng/mL; in assay [11], 289 ng/mL; in assay [12] it was 630 ng/mL. The figures for the IgE concentration detected in assay [14] and in [15] were 56 ng/mL and 328 ng/mL, respectively. The “IC25 ng/mL” value was determined as 4.13 µg/mL in [2]; 7.9 µg/mL in assay [4]; 39.7 µg/mL in [6]; 2.35 µg/mL in assay [10]; 1.81 µg/mL in assay [16]. Besides, the A290 nm in assay [8] and in assay [9] was 0.04 A290 nm throughout. For the same molecule, the “IC50, inhibition of IgE-mediated degranulation (histamine release) of RBL-2H3 (FcεR1) cells; Batch 1” value in [13] was found to be 0.36 µg/mL. Moreover, the “IC50, inhibition of IgE-mediated degranulation (histamine release) of RBL-2H3 (FcεR1) cells; Batch 2” value in [13] stood at 0.123 µg/mL.

B2: 5.948.1 Hc-H100Y (antibody, human IgG2, kappa, V domains shown)
VH: B1 VH with H100Y
VL: not shown
notes: Human IgG2 kappa; leader omitted; also called 5.948.1 (H100Y); 5.948.1 H100Y
As for B2, the IgE concentration detected stood at 178 ng/mL in assay [1]; 408 ng/mL in [3]; 39 ng/mL in [5]; 0 ng/mL in assay [7]; 170 ng/mL in assay [11]; 420 ng/mL in assay [12]. Further, the results for the IgE concentration detected in [14] and in assay [15] were 36 ng/mL and 199 ng/mL, respectively. For the same molecule, the “IC25 ng/mL” value is 0.76 µg/mL in assay [2]; 2.55 µg/mL in assay [4]; 10.5 µg/mL in assay [6]; 0.55 µg/mL in [10]; 0.34 µg/mL in assay [16]. For the same molecule, the A290 nm in assay [8] amounted to 0.05 A290 nm; in assay [9], 0.06 A290 nm. The “IC50, inhibition of IgE-mediated degranulation (histamine release) of RBL-2H3 (FcεR1) cells” value in assay [13] was 0.0121 µg/mL.

The values above are taken from patent publication US20090117124A1 (Pfizer, published 2009).
